{"source": "paper PMC12933331", "about": "“A Cryptic Pocket Allosterically Modulates Oligosaccharide Binding to DC-SIGN” (JACS Au, 2026)", "binders": {"B1": {"name": "DC-SIGN extracellular domain (ECD), wildtype, Q9NNX6 59-404 (receptor)", "chain": "QVSKVPSSISQEQSRQDAIYQNLTQLKAAVGELSEKSKLQEIYQELTQLKAAVGELPEKSKLQEIYQELTRLKAAVGELPEKSKLQEIYQELTWLKAAVGELPEKSKMQEIYQELTRLKAAVGELPEKSKQQEIYQELTRLKAAVGELPEKSKQQEIYQELTRLKAAVGELPEKSKQQEIYQELTQLKAAVERLCHPCPWEWTFFQGNCYFMSNSQRNWHDSITACKEVGAQLVVIKSAEEQNFLQLQSSRSNRFTWMGLSDLNQEGTWQWVDGSPLLPSFKQYWNRGEPNNVGEEDCAEFSGNGWNDDKCNLAKFWICKKSAASCSRDEEQFLSPAPATPNPPPA"}}, "key": {"[1]": {"target": "T1, DC-SIGN extracellular domain (ECD), wildtype, Q9NNX6", "T1 chain": "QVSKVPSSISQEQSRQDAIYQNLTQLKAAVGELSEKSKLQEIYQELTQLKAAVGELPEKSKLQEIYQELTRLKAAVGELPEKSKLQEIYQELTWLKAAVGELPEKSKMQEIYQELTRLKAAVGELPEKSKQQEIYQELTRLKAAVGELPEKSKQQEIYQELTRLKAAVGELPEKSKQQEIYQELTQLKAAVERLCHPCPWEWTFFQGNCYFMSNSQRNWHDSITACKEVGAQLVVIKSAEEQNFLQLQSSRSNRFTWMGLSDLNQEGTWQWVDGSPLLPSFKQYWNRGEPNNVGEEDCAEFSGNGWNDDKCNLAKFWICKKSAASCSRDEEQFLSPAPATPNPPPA", "assay": "dynamic light scattering; purified ECDs; tetrameric state judged from mannan affinity chromatography, DLS and DSF together", "conditions": "remark: other sources report otherwise"}, "[2]": {"target": "T1, DC-SIGN extracellular domain (ECD), …", "assay": "cryo-EM structure; DC-SIGN ECD, single particles; low resolution map, three of the four CRDs visibly resolved", "conditions": "remark: other sources report otherwise"}}}
{"binder": "B1", "values": [{"measurement": "stoichiometry N", "setting": "[1]", "value": 4}, {"measurement": "stoichiometry N", "setting": "[2]", "value": 4}]}
